Measured values taken from doi:10.1101/2023.07.15.549169.

What was measured:
[1] = test system: SMAD4 R100T;SMAD3 WT; test: TR-FRET
[2] = test system: SMAD4 WT;SMAD3 P124S; test: TR-FRET

5'-FAM-SBE4
binding signal (% of WT PDI signal) [1]: 25 | binding signal (% of WT PDI signal) [2]: 25
